Experimental data: article PMC9132103

Columns and labels:
[1] = target: human IL-10Rβ extracellular domain (residues 20-220), biotinylated, from Hi5 cells (human) (UniProt Q08334)
[2] = target: Clone 5.1 (super-10), affinity-matured mono-IL-10 clone (UniProt P22301)
[3] = target: Clone 5.1 (super-10) in the presence of IL-10Rα ECD (UniProt P22301)

human IL-10Rβ extracellular domain (residues 20-220), biotinylated, from Hi5 cells, sequence (Q08334 20-220): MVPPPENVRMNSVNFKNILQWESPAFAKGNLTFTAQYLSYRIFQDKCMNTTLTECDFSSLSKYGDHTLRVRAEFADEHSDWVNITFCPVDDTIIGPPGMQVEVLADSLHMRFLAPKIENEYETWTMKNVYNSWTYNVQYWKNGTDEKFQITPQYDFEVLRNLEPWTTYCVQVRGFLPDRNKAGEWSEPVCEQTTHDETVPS
human IL-10Rβ extracellular domain (residues 20-220), biotinylated, from Hi5 cells (human), sequence (Q08334 20-220): as above

Row | Substance | phospho-STAT3 by flow cytometry, YT-1 cells, relative to WT IL-10 [1] [%] | Kd [2] [nM] | Kd [3] [nM]
1 | IL-10 D25A/E96A (10-DE) (from UniProt P22301 19-178) (ligand) | 50 | – | –
2 | IL-10 D25K (from UniProt P22301 19-178) (ligand) | 50 | – | –
3 | human IL-10Rβ extracellular domain (residues 20-220), biotinylated, from Hi5 cells (from UniProt Q08334 20-220) (receptor) | – | 70 | 30
